This data set in a line: soluble on expression in E. coli; label from the status in PepcDB or PDB records.
For “MSYYHHHHHHLESTSLYKKAGLENLYFQGVRQYKIHTNLDGTDDKVWDVTNGKVRFYQPSNLGLQSTNNIWQSNGIGVMGTRSITQPQIEFKLETFGESLEENYQLMKDFVNDILSKKFVTLEYQTEIFQVYADLALADVTKTEGYGKNGTFSEKITFDIITKWYTYENLTFDKIQNGKVIAGMSKIYGGTAPGNYKYIKGTSYTYYGESDIDRLSRWDIKEEIFSFMGILYPKLPKTPAGVRFLDDIGNEYTAIVFKTEQVQDYILINTDVNDETYQGWKGTTALNLFPVMDFERYRTRIIEKGQMELINLSKAEFKIKRKADFV”, the “soluble on expression in E. coli” value is listed as “soluble”.

On to “MSMLCSLYRITPEQVTKLKDFPDAIGELVGFTAPPPKVSFLSKLFGKPPKQLSSSGQQFEPVAESDIFELNQAWHILHFLFSGTNAESPWPGGFLISGGEEIGPDQGYGPIRLFDSELSRAVAGFLDTQSFKMLDSAYVASEIEATEIYWKVSSEHTERQRQLEELWSMVKELQTFFEHTVRAGNATLLSIY”, for which the “soluble on expression in E. coli” value is given as “not soluble”.

In the case of “MGSDKIHHHHHHMFLRFFSELRQAKVPVSLREYLLLMEALDKDVIDRSVEDFYFLSRASLVKDEKNLDKFDRVFSHVFKGLETVNDGLAADIPEEWLKALTEKFLTDEEKAQIEALGGFEKLMETLQERLREQKKRHEGGNKMIGSGGTSPFGNNGYNPEGVRIGQDKGRHGRAVKVWDKREYKNLDDSVELGTRNIKVALRRLRKFARTGAAEELDLNGTIKGTAEKGYLDIQLRPERRNAIKVLLFFDIGGSMDSHIKLCEELFSAARTEFKNLEFYYFHNCLYETVWKDNKRRQTEKIPTFDVLHKFPADYKVIFVGDATMSPYEITYPGGSVEHWNEEPGAIWMQRVTEIYQSCIWLNPTPERHWDYTQSIGVMRQIMADRMFPLTIEGLDKAMRELVRG”, the “soluble on expression in E. coli” value is listed as “not soluble”.

Take “MAHHHHHHMCAYASILVVSAVHLCFCYRSHTSQSMTPAKALRLSSLPLATAWWRQHGLADRLEGFRACRQPTPRQRPLQRTADGGVSLGWAGLLAGAEQSRTSSITTATDRPPDLPLVLVSACLLSYPVTYRGTHTNLPASLRPTPLLFLTEVLFKELGLVQCVPVCPEVQWLGLPVPRVPLRLVRGSRGTDDARQRGSGWAAAQHSSSATLPSLSMSASDSVAIKGEREARYLVESSAEDHVLLRCDAPNDTFAEQSPSPQLHSAFLAQLVQDLKAVDGIILKSYSPSCGVRDARLYEEAVTSPPSSPCDQHACNACERAGKPTSASFIGRRPAASASAQRRFDLVDGFFTQQLRDFLTSMHGVGGERRADARCHSEAAAPVITCDRLLTDFYTEERLRRSPLAGKVKKRHVAGNASEAAPHLTSLDSFMESVLQHRDWRVSQHRC”: the “soluble on expression in E. coli” value was “not soluble”.

As for “MTLENNMDKKLFCISTYGCQMNEEDSEKLSGMLKSQGYERTENKEEASIIIFNTCCVRENAENKVFGNLGQLKQLKKKNPNLVIAICGCMMQQVGMADKVLKTFPYVDIIFGTHNAHKFPEYLHRVLQEGVQVKEILNKEEGIVEGLPIDRKSDVKAFVTIMYGCNNFCTYCIVPYVRGRERSRKSEDIIKEIEELVSQGYKEITLLGQNVNSYGKGLEEDIDFAGLLRKVNEVKGLERVRFMTSHPKDLSDDVIMAIKECDKLCEQVHLPVQSGSSRILKEMNRHYDREYYLDLVKKIKSEIPDVTLTTDIIIGFPGETEEDFLDTLSLCEEVGYDSAFTFIYSRRNHTPADKMENQIPDDIKHDRFNRLVEAINKKVVIKNKEYEGKVVEVLVEGPSKNDETKLTGRTRNGKLVNFAGDEKLVGELVNLKIVRAQPFSLIGEIVE”, the “soluble on expression in E. coli” value is given as “soluble”.

With “MAVPEGNSWTYTAASASITAPAQLVGNVGELQGAGSAVIWNVDVPVTGEYRINLTWSSPYSSKVNTLVMDGTALSYAFAEATVPVTYVQTKTLSAGNHSFGVRVGSSDWGYMNVHSLKLELLGGLTIRSPANLEHHHHHH”, the “soluble on expression in E. coli” value was “soluble”.

Regarding “MGSDKIHHHHHHMADMTDQLPEVRKSHPYVMYEMMKDIPNGIDRTLSSMQNADLSFIGDDLIFLGNGTAYHSAYVGSQILDRVSKRHAVVQAYEYLNYMQSNAATIAISHTGKTKSTVDAVIKARKTAKTAGITHYADSPLYNSVDYPIAIADEDKSLCNTKAFFNNAFASLYIADYYGNLSYDMKNLRSEIAKHVGKDDPEMRSAAEELDQIDDIFVLGSGFNFPVAREAAQKIKEATHIHAEGIEFEEFNHGCTAVMDENTLVILIEGEKDRARGDQIARASRYVGSKTLAINGVGDISVYNDPQDDLSAAFLNTLDLYYLAYYLAVRRNINPDMLRFEDRRYRDYDSVVFPPGEH”, the “soluble on expression in E. coli” value is “not soluble”.

Regarding “MPIRHCIVHLIEKKPDGTPAVLHARDSELAESQAIENMLADLNESYNAKQGKAWGLFHPESGAHPFSGWLKEYLDGGKDFTAFSRVSVEHLQKLMEESNLSVGGHVLFAHYQQGMTDYLAIALLHHSDGVAVNAELDVTPSRHLDLGQLHLAARINISEWQNNKQSKQYISFIKGKNGKKVSEYFRDFIGCQEGVDGPGETRTLLKAFSDFVESEDLPEESAREKTKTLIDYASSQSKMGEPMGLEALSELIDENQPRAFYDHIRNKDYGLSPEIPADKRTLNQFRRFTGRAEGLSISFEAHLLGDKIEYDETAGTLIIKGLPTQLTDQLKRRLEHHHHHH”, the “soluble on expression in E. coli” value is “not soluble”.

Regarding “MSQGDSNPAAIPHAAEDIQGDDRWMSQHNRFVLDCKDKEPDVLFVGDSMVQLMQQYEIWRELFSPLHALNFGIGGDTTRHVLWRLKNGELENIKPKVIVVWVGTNNHENTAEEVAGGIEAIVQLINTRQPQAKIIVLGLLPRGEKPNPLRQKNAKVNQLLKVSLPKLANVQLLDTDGGFVHSDGAISCHDMFDFLHLTGGGYAKICKPLHELIMQLLEETPEEKQTTIA”, the “soluble on expression in E. coli” value is reported as “soluble”.

Regarding “SLAGPKESRDLTLEQFQVNFLDQYTIKHAFINGVNIYRCYPGAPPNNVQMVMQRSHGTEVPGIMVNLEGQQPTVVPLDASIIGAKKLTPTTTRPLHNVRVLRVNAVMRFHPLCRARFVGPNDISFGIRSATSQSIQEHIQELTDLMKKTQQADEQAMGALYSRSSALVSKLKMSGATSNVAFLEVPQTETRWGNPWTWYRAYLPTPLGDGVETWMTPIGDSGYYITVDFNFTESERQKNTENYQRARQLMDSVLQSVVIQKR”, the “soluble on expression in E. coli” value is reported as “soluble”.

In the case of “MSLGHIIVTGAGSGLGRALTIGLVERGHQVSMMGRRYQRLQQQELLLGNAVIGIVADLAHHEDVDVAFAAAVEWGGLPELVLHCAGTGEFGPVGVYTAEQIRRVMESNLVSTILVAQQTVRLIGERGGVLANVLSSAAQVGKANESLYCASKWGMRGFLESLRAELKDSPLRLVNLYPSGIRSEFWDNTDHVDPSGFMTPEDAAAYMLDALEARSSCHVTDLFIGRNEGHHHHHH”, the “soluble on expression in E. coli” value is “soluble”.

For the sequence “MSTSDTPRTYHHGNLPAVLRQAAWDIVGEAGVRSVSLRECARRANVSHAAPAHHFGSLENLLAEVVADGYERMVDAVQAAQRELDDPVLGCGMGYVNFARQYPQHFRLMFGMTGVNRALPRLVNSGEATLQLLRQSLRTAWIAKNGVEPEPALLEQRTLLAWSTAHGYASLAIDRTTVEPFVVSAESILQPMAVFLLTP”, the “soluble on expression in E. coli” value was “not soluble”.

Take “MGSDKIHHHHHHMMETTQFNPIQLKRARVARGKTMKVLAEETGISRQMISNYELGKTVPSGLNLVKLISVLNFPKNYFSATQASNLHGATFFRSQNAATKRARDMQSVRLSFQNDIYTTLSQYVNFPKVDLPESLDMDVDDITNDNIKFMAMRVRDQWDLGTKTPIENLIQTAEIHGIVVVKTNMTNDKLDAVSEIIEGRPFIMLTDNGESAVRRRFNVAHELGHIVLHAGIESIHDFTSQQLKNTIERQANLFASTFLMPDDAFVESLLSTSLDYYIKLKQYWKASIQSMIYKTYQLGLINDDQKLYLNKKISWNKWRKIEPLDNILEIENPTLFGKVFNMIIDHKVVSQADLLSELKLPFDELECSLGIQLATQKNISEPKLRLL”: the “soluble on expression in E. coli” value was “not soluble”.

On to “MSKSTAEIRQAFLDFFHSKGHQVVASSSLVPHNDPTLLFTNAGMNQFKDVFLGLDKRNYSRATTSQRCVRAGGKHNDLENVGYTARHHTFFEMLGNFSFGDYFKHDAIQFAWELLTSEKWFALPKERLWVTVYESDDEAYEIWEKEVGIPRERIIRIGDNKGAPYASDNFWQMGDTGPCGPCTEIFYDHGDHIWGGPPGSPEEDGDRYIEIWNIVFMQFNRQADGTMEPLPKPSVDTGMGLERIAAVLQHVNSNYDIDLFRTLIQAVAKVTGATDLSNKSLRVIADHIRSCAFLIADGVMPSNENRGYVLRRIIRRAVRHGNMLGAKETFFYKLVGPLIDVMGSAGEDLKRQQAQVEQVLKTEEEQFARTLERGLALLDEELAKLSGDTLDGETAFRLYDTYGFPVDLTADVCRERNIKVDEAGFEAAMEEQRRRAREASGFGADYNAMIRVDSASEFKGYDHLELNGKVTALFVDGKAVDAINAGQEAVVVLDQTPFYAESGGQVGDKGELKGANFSFAVEDTQKYGQAIGHIGKLAAGSLKVGDAVQADIDEARRARIRLNHSATHLMHAALRQVLGTHVSQKGSLVNDKVLRFDFSHNEAMKPEEIRAVEDLVNAQIRRNLPIETNIMNLEAAKAKGAMALFGEKYDERVRVLSMGDFSTELCGGTHASRTGDIGLFRIISESGTAAGVRRIEAVTGEGAITTVHADSDRLSEVAHLLKGDSNNLADKVRSVLERTRQLEKELQQLKEQAAAQESANLSSKAIDVNGVKLLVSELSGVEPKMLRTMVDDLKNQLGSTIIVLATVAEGKVSLIAGVSKDVTDRVKAGELIGMVAQQVGGKGGGRPDMAQAGGTDAAALPAALASVKGWVSAKLQ”, for which the “soluble on expression in E. coli” value is given as “not soluble”.

In the case of “MGSDKIHHHHHHMAKEILVAYGVDIDAVAGWLGSYGGEDSPDDISRGLFAGEVGIPRLLKLFKKYHLPATWFSPGHSIETFSEQMKMIVDAGHEVGAHGYSHENPIAMTAKQEEDVLLKSVELIKDLTGKAPTGYVAPWWEFSNITNELLLKHGFKYDHSLMHNDFTPYYVRVGDSWSKIDYSLEAKDWMKPLIRGVETDLVEIPANWYLDDLPPMMFIKKSPNSFGFVSPHDIGQMWIDQFDWVYREMDYAVFSMTIHPDVSARPQVLLMHEKIIEHINKHEGVRWVTFNEIADDFLKRNPRKK”, the “soluble on expression in E. coli” value is on record as “not soluble”.

For “METEICEQLGDLHLDKEAILLRAEQIEQDIKARKYSVIPPLSDEEQNLLDAEIAKRAAPPPGVPDAADFPLHDIVKELGLDKPVDGTDPEFYEELKAKDANTVYKNMKDVPDSIAAKYLPDLARRFVEFERRVKRVERMLWALPREDRSLEEDRFEILTELLDKSCQGLEIWEEHCERKIPLGHRCVLEGELIHLITSKFDLIDKICGEFDKLKNKRSEVNDERDMLRYEIRHCDMIFTEIHEKFLKSYLEMDW”, the “soluble on expression in E. coli” value is “not soluble”.

In the case of “MGSDKIHHHHHHMIKSFWLENFGPISLLKADNLGKINLIIAENSKGKTFILKALYSVLKSHEEAHKGKNIRDFSEELRDKLYWTFQVEEIGDLVTRGKENPNERPLKLSMTLEDSSSVLFSFGRTTKKLIKPELYELSPRINANSIFLPPKEVLSLFDVIKKSEEEKRFGFDATYIDLVKALDIKPTKGRNYPEAAEARKDLEALFGGYVSYNDKKKAWVYEKDRQTFSINSTAEGVKKIGILDTLLGNRFLSPGSILFIDEPEANLHPKAINQFLEILFSLSKSKLGIQIFMSTHSYFVIKKLCLLARKHSESIPVFMPGKEKEQTTWVQENLQNSMPDNEIIGESIRLFREEIGVLSPETAWIG”, the “soluble on expression in E. coli” value is “not soluble”.

With “MPFSISGRKGSEMMAKLDELKQKLTAKQIQAAYLLVENELMESNNEEKRTQDEMANELGINRTTLWEWRTKNQDFIAFKSEVADSFLAEKREQVYSKLMQLILGPQPSVKAMQLYMQRFGLLTDKKVIEGDLGNATRTNAEIEEQLQKLKKLTGE”, the “soluble on expression in E. coli” value is recorded as “soluble”.

Source of the values: the DeepSol protein solubility set.
